The values that follow come from the RNAGym collection of RNA variant scans (doi:10.1093/nar/gkz1192).

The chains are these.
B1: CPEB3 Ribozyme (parent)
chain: UAACAGGGGGCCACAGCAGAAGCGUUCACGUCGCAGCCCCUGUCAGAUUCUGGUGAAUCUGCGAAUUCUGCUGUAUAUCUC

The variants in the data set derive from B1. Briefly: self-cleavage, relative activity (ratio to wild type); higher = more cleavage; in vitro, sequencing. In a few lines: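 After error-prone PCR and barcoding, CPEB3 ribozyme mutant libraries were transcribed with T7 RNA polymerase at 37°C for 5 hours, then given 15 min with DNase I before an EDTA stop, and they cleaved during both steps. Reverse transcription with template switching preceded Illumina sequencing. Relative activity divides a variant's cleaved/total read fraction by the unmutated ribozyme's. At least 5 reads were required per variant, and three batches were averaged.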
Take A47U C50A: the self-cleavage amounted to 0.23.
Then U48C U49C, with 0.32; and U48C U49A, with 0.48.
Consider U48C U49G, for which the self-cleavage worked out at 0.29.
For the variant A47G C59G, the self-cleavage was found to be 0.35.
Under A47G C59A stands 0.29; under U48A U74A, 0.98.
Under U48A U69G stands 0.34; under U48A U69C, 0.44; under U48A U69A, 0.18.
Under U48A A75G stands 0.32; under U48A A75U, 0.61; under A47U A64G, 0.37.
Regarding A47U A64U, the self-cleavage came to 0.26.
Then A47U U48C, with 0.26.
As to A47U U48G, the self-cleavage was determined as 0.18.
For A47U G55U, the self-cleavage was 0.26.
Turning to U48C A75U, the self-cleavage was found to be 0.71.
Under U48C A75G stands 0.43.
Then U48C A75C, with 1.07.
Under A47C U72A stands 0.26; under A47U C81A, 1.13.
On to A47C U78A, for which the self-cleavage came to 0.51.
On to A47C U78C, for which the self-cleavage was determined as 0.54.
Then A47C U78G, with 0.46; and U49A A65G, with 0.29.
On to U49A A65C, for which the self-cleavage was found to be 0.13.
Then U49A A65U, with 0.47; and A47G U51C, with 0.94; and A47G U51A, with 0.98.
Then A47G U51G, with 0.79.
Then A47C C59U, with 0.18; and U48G A75G, with 0.3.
Take U48G U66C: the self-cleavage was determined as 0.45.
Then G46U U74A, with 0.46; and U48C G73C, with 1.23; and U48C G73U, with 0.95.
For the variant U48A U49A, the self-cleavage came to 0.38.
On to U48A U49C, for which the self-cleavage is 0.3.
Then U48A U49G, with 0.21; and U48C G55C, with 0.36.
Then U48C G55A, with 0.32; and G46U U72C, with 0.22; and G46U U72G, with 0.25.
With A47C U74C, the self-cleavage is 0.7.
Then A47G G55A, with 0.75; and A47G G55C, with 0.57.
Then A47G G55U, with 0.99.
Turning to U48A A64G, the self-cleavage was determined as 0.26.
Under U48A A64U stands 0.14; under U48A U66G, 0.43; under U48A U66A, 0.36.
Under U48A U66C stands 0.16.
Then A47U G53U, with 1.03; and A47G C68U, with 0.89.
On to A47G C68A, for which the self-cleavage amounted to 0.43.
A47U U74C: the self-cleavage stood at 1.14.
Then A47U U74A, with 0.64; and A47U U74G, with 0.96.
As for A47U U69C, the self-cleavage was found to be 0.33.
As to A47U U69A, the self-cleavage was 0.34.
Under A47U U60A stands 0.21.
Under A47U U60G stands 0.29.
For A47U U60C, the self-cleavage turned out to be 0.23.
Under A47G A77G stands 1.09; under A47G A77U, 1.06; under U48C U69G, 0.36.
Then U48C U69A, with 0.37; and U48C U69C, with 0.32.
Then A47G U60A, with 0.41; and A47G U60C, with 0.37; and A47G U60G, with 0.41.
As for A47U G52A, the self-cleavage is 0.86.
Under U48C U72A stands 0.4; under U48C U72C, 0.7.
Under A47U U54A stands 0.72; under A47U U54C, 0.37; under A47U A57G, 0.32.
Consider A47U A57U, for which the self-cleavage was determined as 0.64.
Regarding A47C U80C, the self-cleavage is 0.43.
Then U48A C79G, with 0.73.
Under A47U C59A stands 0.17; under A47U C59U, 0.2; under U48C C59U, 0.39.
Then U48C C59A, with 0.19.
Turning to U48G, the self-cleavage was determined as 0.5.
For U48C, the self-cleavage stood at 0.65.
Consider U48A, for which the self-cleavage is 0.48.
In the case of A47U U72C, the self-cleavage stood at 0.53.
Then A47U U72A, with 0.35; and A47C A65U, with 0.12; and A47G A56U, with 0.45.
Then A47G A56G, with 0.71.
As to A47G A56C, the self-cleavage is 0.95.
Under A47U G63A stands 0.29.
As for U48A C50U, the self-cleavage is 0.35.
Under U48C U80C stands 0.68; under U48C U80A, 0.68.
For U48A U58G, the self-cleavage turned out to be 0.18.
Then U48A U58C, with 0.29.
Under U48A U58A stands 0.5; under U48C G70A, 0.19; under U48C G70C, 0.21.
Then A47U U49A, with 0.41; and A47U U49C, with 0.46; and U48A G55A, with 0.21.
As to U48C G61A, the self-cleavage stood at 0.33.
Regarding U48C G61C, the self-cleavage came to 0.18.
Then A47C A57G, with 0.5; and G46U U78C, with 0.27.
Then A47G U49C, with 0.33.
Turning to A47G U49G, the self-cleavage came to 0.47.
Under A47G U49A stands 0.34; under A47U C68A, 0.25.
Under A47G A57G stands 0.51.
Under A47G A57U stands 0.29; under A47G A57C, 0.36; under A47G C71U, 0.87.
For the variant A47G A65G, the self-cleavage was 0.4.
As to A47G A65U, the self-cleavage is 0.49.
Then U48C A64U, with 0.27; and U48C A64C, with 0.18.
With U48C A64G, the self-cleavage was 0.41.
In the case of U48G U78C, the self-cleavage is 0.59.
Under U48G U69A stands 0.21; under U48G U69C, 0.34; under U48C C50U, 0.54.
Under U48C C50A stands 0.25; under A47G U76G, 1.16.
Under A47G U76C stands 1.04.
In the case of A47G U76A, the self-cleavage is 0.98.
As to U48A A57U, the self-cleavage came out at 1.09.
Under U48A A57G stands 0.47.
Then U49A A57U, with 0.4; and U49A A57G, with 0.5; and U48A C59A, with 0.44.
Then U48C C79A, with 0.89; and U48C C79G, with 0.74.
Turning to U48C C79U, the self-cleavage amounted to 0.88.
Then U48C U66C, with 0.27; and U48C U66A, with 0.44.
Under A47U C62U stands 0.33; under A47U U76A, 0.82.
As to A47U U76C, the self-cleavage is 0.59.
Under A47C A77G stands 0.34.
Under U48C C62U stands 0.33; under U48G U80C, 0.6.
In the case of A47G U80C, the self-cleavage amounted to 1.08.
Under A47G U80A stands 1.13; under A47G U72C, 1.12; under A47G U72G, 0.35.
A47G U72A: the self-cleavage was 0.64.
Turning to A47G A75U, the self-cleavage came out at 1.11.
Consider A47G A75G, for which the self-cleavage stood at 0.88.
Then A47G A75C, with 0.98.
Then U48C U76C, with 0.67; and U48C U76A, with 0.72; and A47G G70A, with 0.77.
Then U48C U51C, with 0.49; and U48C U51G, with 0.33.
Turning to U48C U51A, the self-cleavage was 0.42.
Consider A47U G70A, for which the self-cleavage was 0.13.
A47U G70U: the self-cleavage came out at 0.14.
Under U48C U54A stands 0.71; under U48C U54C, 0.4; under U48C U54G, 0.38.
Then U48C C68A, with 0.34.
